Results published in patent US20140017764.

B1: TEV-PE10, purified (protein)
chain: HHHHHHSLFKGPRDYNPISSTICHLTNESDGHTTSLYGIGFGPFIITNKHLFRRNNGTLLVQSLHGVFKVKNTTTLQQHLIDGRDMIIIRMPKDFPPFPQKLKFREPQREERICLVTTNFQTKRMSSMVSDTSCTFPSSDGIFWKHWIQTKRGQCGSPLVSTRDGFIVGIHSASNFANTNKYFTSVPKNFMELLTNQEAQQWVSGWRLNADSVLWGGHKVFIPKPEEPFQPVKEATQLMN
B2: wild-type TEV protease (TEV-P), purified (protein)
chain: HHHHHHSLFKGPRDYNPISSTICHLTNESDGHTTSLYGIGFGPFIITNKHLFRRNNGTLLVQSLHGVFKVKNTTTLQQHLIDGRDMIIIRMPKDFPPFPQKLKFREPQREERICLVTTNFQTKSMSSMVSDTSCTFPSSDGIFWKHWIQTKDGQCGSPLVSTRDGFIVGIHSASNFTNTNNYFTSVPKNFMELLTNQEAQQWVSGWRLNADSVLWGGHKVFMPKPEEPFQPVKEATQLMN
B3: TEV-PH21, purified (protein)
chain: HHHHHHSLFKGPRDYNPISSAICHLTNESDGHTTSLYGIGFGPFIITNKHLFRRNNGTLLVQSLHGVFKVKNTTTLQQHLIDGRDMIIIRMPKDFPPFPQKLKFREPQREERICLVTTNFQTKSMSSMVSDTSCTFPSSDGIFWKHWIQAKPGQCGCPLVSTRDGFIVGIHTAANFANTNNYFTSVPKNFMELLTNQEAQQWVSGWRLNADSVLWGGHKVFMPKPEEPFQPVKEATQLMN

These proteins were tested against […] peptide substrate.
B1 gave a KM of 120 µM, a kcat of 0.0194 s⁻¹ and a kcat/KM of 160 M⁻¹ s⁻¹. With B2 the KM was 110 µM, the kcat was 0.13 s⁻¹ and the kcat/KM was 1200 M⁻¹ s⁻¹. Work on B3 yielded a KM of 820 µM, a kcat of 0.0171 s⁻¹ and a kcat/KM of 20.7 M⁻¹ s⁻¹.
